# B1: C8orf76 (parent)
# chain: LYLQLAICSSLQNLEKTIFCLQKL
# Variants of: B1
# Assay: protein stability index of a GFP-peptide fusion (GPS, HEK-293T) (PSI 1-6); higher = more stable
# Settings: c terminus: a fixed tail appended
# 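Note: lentivirally expressed fusions sorted by FACS into six bins by GFP to DsRed ratio, PSI derived from sequencing read proportions per bin multiplied by bin number.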
row,Variant,protein stability index
1,LYVQLAICSSLQNLEKTIFCLQKL,3.09
2,LYDQLAICSSLQNLEKTIFCLQKL,2.73
3,LYAQLAICSSLQNLEKTIFCLQKL,3.31
4,LYTQLAICSSLQNLEKTIFCLQKL,4.08
5,LYCQLAICSSLQNLEKTIFCLQKL,4.32
6,LYPQLAICSSLQNLEKTIFCLQKL,1.81
7,LYSQLAICSSLQNLEKTIFCLQKL,3.2
8,LYRQLAICSSLQNLEKTIFCLQKL,4.15
9,LYNQLAICSSLQNLEKTIFCLQKL,1.34
10,LYEQLAICSSLQNLEKTIFCLQKL,2.56
11,LYLQLNICSSLQNLEKTIFCLQKL,2.71
12,LYLQLCICSSLQNLEKTIFCLQKL,2.72
13,LYLQLPICSSLQNLEKTIFCLQKL,2.9
14,LYLQLWICSSLQNLEKTIFCLQKL,1.73
15,LYLQLIICSSLQNLEKTIFCLQKL,2.16
16,LYLQLRICSSLQNLEKTIFCLQKL,3.17
17,LYLQLMICSSLQNLEKTIFCLQKL,3.66
18,LYLQLGICSSLQNLEKTIFCLQKL,1.73
19,LYLQLTICSSLQNLEKTIFCLQKL,3.04
20,LYLQLYICSSLQNLEKTIFCLQKL,2.03
21,LYLQLLICSSLQNLEKTIFCLQKL,2.52
22,LYLQLHICSSLQNLEKTIFCLQKL,4.38
23,LYLQLVICSSLQNLEKTIFCLQKL,1.62
24,LYLQLQICSSLQNLEKTIFCLQKL,2.63

row,Variant,protein stability index
1,EYLQLAICSSLQNLEKTIFCLQKL,3.38
2,IYLQLAICSSLQNLEKTIFCLQKL,2.57
3,TYLQLAICSSLQNLEKTIFCLQKL,2.99
4,SYLQLAICSSLQNLEKTIFCLQKL,3.44
5,NYLQLAICSSLQNLEKTIFCLQKL,3.07
6,PYLQLAICSSLQNLEKTIFCLQKL,3.08
7,VYLQLAICSSLQNLEKTIFCLQKL,2.57
8,DYLQLAICSSLQNLEKTIFCLQKL,4.64
9,LYLQLAILSSLQNLEKTIFCLQKL,2.92
10,LYLQLAIPSSLQNLEKTIFCLQKL,2.57
11,LYLQLAIFSSLQNLEKTIFCLQKL,1.94
12,LYLQLAIMSSLQNLEKTIFCLQKL,4.39
13,LYLQLAIWSSLQNLEKTIFCLQKL,2.12
14,LYLQLAIISSLQNLEKTIFCLQKL,1.69
15,LYLQLAIGSSLQNLEKTIFCLQKL,3.48
16,LYLQLAIYSSLQNLEKTIFCLQKL,2.62
17,LYLQLAINSSLQNLEKTIFCLQKL,3.14
18,LYLQLAIHSSLQNLEKTIFCLQKL,2.52
19,LYLQLAITSSLQNLEKTIFCLQKL,2.71
20,LYLQLAIVSSLQNLEKTIFCLQKL,3.6
21,LYLQLAIESSLQNLEKTIFCLQKL,3.54
22,LYLQLAISSSLQNLEKTIFCLQKL,3.03
23,LYLQLAIRSSLQNLEKTIFCLQKL,3.1
24,LYLILAICSSLQNLEKTIFCLQKL,2.44

row,Variant,protein stability index
1,LYLMLAICSSLQNLEKTIFCLQKL,3.43
2,LYLALAICSSLQNLEKTIFCLQKL,1.92
3,LYLCLAICSSLQNLEKTIFCLQKL,5.01
4,LYLFLAICSSLQNLEKTIFCLQKL,2.22
5,LYLVLAICSSLQNLEKTIFCLQKL,3.48
6,LYLELAICSSLQNLEKTIFCLQKL,1.65
7,LYLTLAICSSLQNLEKTIFCLQKL,2.97
8,LYLSLAICSSLQNLEKTIFCLQKL,4.32
9,LYLDLAICSSLQNLEKTIFCLQKL,2.74
10,LYLWLAICSSLQNLEKTIFCLQKL,1.41
11,LYLKLAICSSLQNLEKTIFCLQKL,2.11
12,LYLRLAICSSLQNLEKTIFCLQKL,4.03
13,LYLQLAICSSLQYLEKTIFCLQKL,2.21
14,LYLQLAICSSLQFLEKTIFCLQKL,2.51
15,LYLQLAICSSLQDLEKTIFCLQKL,3.49
16,LYLQLAICSSLQMLEKTIFCLQKL,3.43
17,LYLQLAICSSLQCLEKTIFCLQKL,2.25
18,LYLQLAICSSLQPLEKTIFCLQKL,3.23
19,LYLQLAICSSLQALEKTIFCLQKL,2.98
20,LYLQLAICSSLQSLEKTIFCLQKL,3.71
21,LYLQLAICSSLQILEKTIFCLQKL,1.93
22,LYLQLAICSSLQRLEKTIFCLQKL,3.01
23,LYLQLAICVSLQNLEKTIFCLQKL,3.45
24,LYLQLAICISLQNLEKTIFCLQKL,2.34

row,Variant,protein stability index
1,LYLQLAICKSLQNLEKTIFCLQKL,1.75
2,LYLQLAICNSLQNLEKTIFCLQKL,4.23
3,LYLQLAICLSLQNLEKTIFCLQKL,2.28
4,LYLQLAICWSLQNLEKTIFCLQKL,1.02
5,LYLQLAICDSLQNLEKTIFCLQKL,2.72
6,LYLQLAICGSLQNLEKTIFCLQKL,3.03
7,LYLQLAICMSLQNLEKTIFCLQKL,4.15
8,LYLQLAICASLQNLEKTIFCLQKL,3.6
9,LYLQLAYCSSLQNLEKTIFCLQKL,3.21
10,LYLQLAMCSSLQNLEKTIFCLQKL,2.24
11,LYLQLATCSSLQNLEKTIFCLQKL,2.36
12,LYLQLAGCSSLQNLEKTIFCLQKL,3.86
13,LYLQLANCSSLQNLEKTIFCLQKL,2.23
14,LYLQLASCSSLQNLEKTIFCLQKL,1.26
15,LYLQLAHCSSLQNLEKTIFCLQKL,2.71
16,LYLQLAICSSLQNLENTIFCLQKL,2.47
17,LYLQLAICSSLQNLETTIFCLQKL,4.26
18,LYLQLAICSSLQNLECTIFCLQKL,4.77
19,LYLQLAICSSLQNLEYTIFCLQKL,2.26
20,LYLQLAICSSLQNLEQTIFCLQKL,3.17
21,LYLQLAICSSLQNLEPTIFCLQKL,2.32
22,LYLQLAICSSLQNLESTIFCLQKL,2.67
